# According to the RNAGym collection of RNA variant scans (doi:10.1073/pnas.2313332121):
# B1: TPR t1 (parent)
# chain: GACCAAUCUGCCCUCAGAGCUCGAGAACAUCUUCGGAUGCAGAGGAGGCAGGCUUCGGUGGCGCGAUAGCGCCAACGUCCUCAACCUCCAAUGCAUCCCACCACAUGAUGAUGCCUGAAGAGCCUUGGUUUUUUG
# Variants of: B1
# Test: polymerase ribozyme fitness, log enrichment relative to wild type (log ratio); higher = more active; in vitro selection for triplet polymerase activity
# Outline: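 A heterodimeric triplet polymerase ribozyme had each of its subunits mutagenized by PCR into a library, which was transcribed. One round of in vitro selection, done in triplicate, annealed each library with a biotinylated primer, its partner subunit and triplets, then incubated it frozen at −7 °C before gel excision of extended constructs, streptavidin-bead capture and RT-PCR. Fitness is the logarithm of genotype enrichment relative to wild-type enrichment, based on Illumina sequencing of inputs and outputs and inverse-variance-weighted replicate averages. A base-2 logarithm is used, and genotypes were kept only with ≥10 input reads and ≥1 read per output.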
row,Variant,polymerase ribozyme fitness (log ratio)
1,A41C C53U G122A,-2.04
2,A41C C56G A74C,-5.29
3,A41C C56G C85U C102U,-5.51
4,A41C C62A C82U,-2.04
5,A41C C62U G110A,-3.63
6,A41C C64U U78C U106A,-1.57
7,A41C C70A A118G,-3.8
8,A41C C70G,-3.91
9,A41C C70U,-2.04
10,A41C C72U A74G A91U A95C G113A,-3.31
11,A41C C73G C85A A118U,-3.17
12,A41C C76A C79A U112A U125C,-2.16
13,A41C C82U,-1.12
14,A41C C114U,-2.16
15,A41C C123A,-0.408
16,A41C G42U C104U C114A,-3.04
17,A41C G44U C115A G122U U130G,-4.66
18,A41C G48A G60A C86U U96G,-3.39
19,A41C G48U A111C,-3.12
20,A41C G52U C72G U96A,-4.71
21,A41C G58A C72U,-0.757
22,A41C G61U C70G C101A A111C,-5.73
23,A41C G63C A90C C123G G128C,-3.12
24,A41C G69C A83G,-3.72

row,Variant,polymerase ribozyme fitness (log ratio)
1,A41C G69U C82U A105U C123A,-1.3
2,A41C G117U,-2.87
3,A41C U55A C102U,-3.43
4,A41C U78G G122A,-1.85
5,A41C U81A U133G,-2.53
6,A41C U106C A111C,-2.11
7,A41C U112A,0.299
8,A41C U126G U130G,-4.83
9,A41C U131G,-0.589
10,A41G A43G,-1.45
11,A41G A46U,-3.31
12,A41G A46U G63A C82U U87G,-2.41
13,A41G A50U,-1.71
14,A41G A83C C98U,-1.73
15,A41G A95G C114U,-2.64
16,A41G A118G G120U U130A,-1.43
17,A41G C49G C82U C85U U131G,-1.67
18,A41G C70U C82A U125G,-1.79
19,A41G C73A C82A C115A G135U,-2.65
20,A41G C73U U125C,-2.74
21,A41G C99A A119G U125A,-6.99
22,A41G C99U C124A,-2.72
23,A41G G44A C123U,0.224
24,A41G G45A A50C C123U,-0.694

row,Variant,polymerase ribozyme fitness (log ratio)
1,A41G G45U C56G C124A,-0.22
2,A41G G52C G58U C62A U78C A111C G127A,-4.32
3,A41G G57A U106C,-1.93
4,A41G G61A,-0.141
5,A41G G61A C101U U133G,-1.01
6,A41G G61U C94U,-0.449
7,A41G G69A C85A,-5.81
8,A41G U54A G61C,-2.03
9,A41G U81A,-1.07
10,A41G U106A,-0.451
11,A41G U112C,0.756
12,A41U A43G G48A G63A A90G C104U G120U,-4.4
13,A41U A43U C72G G77C G93A C124G U131A,-0.181
14,A41U A66G G71C U78A,-5.05
15,A41U A66G U92A,-2.28
16,A41U A83C G110A,-4
17,A41U A90C C115G,-4.39
18,A41U A90C C124G,0.559
19,A41U A90G,-0.36
20,A41U A100C U106A U132C,-2.89
21,A41U C49A G52C C72U,-3.5
22,A41U C49U G69A,-6.56
23,A41U C56A,-1.52
24,A41U C62G,-3.92

row,Variant,polymerase ribozyme fitness (log ratio)
1,A41U C64U,-1.24
2,A41U C64U C94U U133G,-1.82
3,A41U C72A,-1.82
4,A41U C72G A90C,-2.3
5,A41U C72G G117C,-5.06
6,A41U C72G U125G U133G,-2.77
7,A41U C76A U81A,-1.77
8,A41U C80A C104U,-6.34
9,A41U C82G,-2.37
10,A41U C82U G113C,-2.61
11,A41U C86G A95U,-3.96
12,A41U C89U G113U G117U,-5.95
13,A41U C104A,-3.22
14,A41U C104U C124U,0.576
15,A41U C123U,-0.183
16,A41U C124G,0.981
17,A41U G42A G52A,-3.18
18,A41U G42C C53A C85U,-4.01
19,A41U G44A,-2.2
20,A41U G45C C114A,-4.37
21,A41U G45U,-1.99
22,A41U G48C C70U,-3.25
23,A41U G51A U87G U112A A119G,-4.72
24,A41U G61U,-0.703

row,Variant,polymerase ribozyme fitness (log ratio)
1,A41U G63A U78A A83U,-4.53
2,A41U G63C A95C,-3.24
3,A41U G77U C88G A111U,-6.76
4,A41U G93C,-2.07
5,A41U G110A,-2.6
6,A41U G113A C114U C115A G122U,-5.49
7,A41U G113C,-3.1
8,A41U G113U,-3.98
9,A41U G120U,-1.11
10,A41U G135U,-2.4
11,A41U U54C A75G C88A U133A,-1.96
12,A41U U54C C124U,1
13,A41U U78C,-1.1
14,A41U U81A A121C,-0.475
15,A41U U87A,-1.14
16,A41U U109C C114U G120U,-4.6
17,A41U U129A,-2.58
18,A41U U130C,-1.35
19,G42A A74C G120C,-2.11
20,G42A A74U A119G,-1.81
21,G42A A121U,0.623
22,G42A C49G,-1.71
23,G42A C53G,-2.5
24,G42A C53U,-2.41

row,Variant,polymerase ribozyme fitness (log ratio)
1,G42A C53U C64U U106A A119G,-1.87
2,G42A C56A U96G,-2.79
3,G42A C56G C85G G93A G120C,-3.01
4,G42A C56U C80U,-3.08
5,G42A C62G G69C C99A A111G C115U U129C,-6.83
6,G42A C62U A84C,-3.09
7,G42A C70A C89A C124U,-4
8,G42A C72A C104A U130C,-5.17
9,G42A C72U,-2.31
10,G42A C73A C104U G128A,-3.49
11,G42A C80U,-2.64
12,G42A C82A U87A G93C C124G,-1.42
13,G42A C85G C86G U129C,-4.79
14,G42A C85G G93A,-3.19
15,G42A C88A A121U,0.406
16,G42A C101U,-1.9
17,G42A C114U,-2.35
18,G42A C124A,-0.186
19,G42A G44A G47U,-3.4
20,G42A G44U C73A,-1.69
21,G42A G45A A50G G113U U129A G135A,-3.94
22,G42A G45U,-2.62
23,G42A G45U G57U C88U U130A,-3.68
24,G42A G47A,-2.34

row,Variant,polymerase ribozyme fitness (log ratio)
1,G42A G60U C82U U112G G127C,-3.6
2,G42A G60U C114G U129C,-3.48
3,G42A G61C C114U G117C,-5.25
4,G42A G69A,-5.77
5,G42A G69C C124U,-2.56
6,G42A G71A,-3.35
7,G42A G77A,-2.61
8,G42A G110A,-2.55
9,G42A G117U,-3.37
10,G42A G127U,-2.7
11,G42A U54A C72G C86U G110A C124G,-4.88
12,G42A U54G A103G U109A G117C,-6.58
13,G42A U55A C82G,-2.94
14,G42A U55C A95C U109A,-6.59
15,G42A U78C,-1.87
16,G42A U87A C89U,-2.26
17,G42A U106C,-2.12
18,G42C A43G A84C C114A,-2
19,G42C A50C A105G,-5.66
20,G42C A50U C82A,-2.49
21,G42C A66U G120A,-2.6
22,G42C C49A G69U A90U U109G G128U,-6.14
23,G42C C49A U92C G117A G122A,-4.11
